Source: patent US20090035322A1 (Regeneron, published 2009)
Substitutions are numbered along the chain they refer to.

T1: human CD20 (human, UniProt P11836 1-297)
T1 sequence: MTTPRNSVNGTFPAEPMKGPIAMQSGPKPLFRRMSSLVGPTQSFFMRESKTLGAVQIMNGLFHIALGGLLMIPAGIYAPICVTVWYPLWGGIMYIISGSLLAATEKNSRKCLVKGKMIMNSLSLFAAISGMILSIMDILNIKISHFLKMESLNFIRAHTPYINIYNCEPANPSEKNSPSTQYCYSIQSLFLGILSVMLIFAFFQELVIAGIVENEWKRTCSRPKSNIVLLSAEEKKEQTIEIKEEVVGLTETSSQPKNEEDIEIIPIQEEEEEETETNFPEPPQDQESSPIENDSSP

T2: mutant human CD20 #4 (N166D) (human, UniProt P11836 1-297)
T2 construct: Stably expressed on MG87 cells
T2 sequence: T1 sequence with N166D

T3: mutant human CD20 #5 (P172S) (human, UniProt P11836 1-297)
T3 construct: Stably expressed on MG87 cells
T3 sequence: T1 sequence with P172S

T4: mutant human CD20 #6 (Y77F, N166D) (human, UniProt P11836 1-297)
T4 construct: Stably expressed on MG87 cells
T4 chain: T1 sequence with Y77F, N166D

T5: mutant human CD20 #9 (N163D, N166D) (human, UniProt P11836 1-297)
T5 construct: Stably expressed on MG87 cells
T5 chain: T1 sequence with N163D, N166D

B1: 3H7-6 (antibody, V domains shown)
VH: EVQLVESGGGLVQPGRSLRLSCAASGFTFYDYAMHWVRQAPGKGLEWVSGISWNSGYIGYADSVKGRFTISRDNAKNSLYLQMNSLRAEDTALYYCAKDNSYGKFYYGLDVWGQGTTVTVSS
VL: EIVMTQSPATLSVSPGERTTLSCRASQSVSSNLAWYLQKPGQAPRLLIYGASTRATGIPARFSGSGSGTEFILTISSLQSEDFAVYYCQQYNNWPITFGQGTRLEIK
notes: Fully human IgG, constant region not specified; also called 3H7-6N
B2: 3B9-10 (antibody, V domains shown)
VH: EVQLVESGGGLVQPGRSLRLSCVASGFTFNDYAMHWVRQAPGKGLEWVSVISWNSDSIGYADSVKGRFTISRDNAKNSLYLQMHSLRAEDTALYYCAKDNHYGSGSYYYYQYGMDVWGQGTTVTVSS
VL: B1 VL with T19A, L37Q, A51T, I72T, I96L, Q100G, R103K, L104V
notes: Fully human IgG, constant region not specified; also called 3B9-10N
B3: 9C3-8 (antibody, V domains shown)
VH: B2 VH with V23A, T28S, N30H, V50G, I58L, H84N, Y107H, Q111K
VL: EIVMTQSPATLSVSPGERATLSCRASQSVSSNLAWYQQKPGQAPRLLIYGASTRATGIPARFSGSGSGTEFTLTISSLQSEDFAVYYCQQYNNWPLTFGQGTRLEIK
notes: Fully human IgG, constant region not specified; also called 9C3-8N
B4: 7E1-13 (antibody, V domains shown)
VH: EVQLVESGGGLVQPGRSLRLSCTASGFTFGDFPMHWVRQAPGKGLEWVSGITWNSGSIVYADSVKGRFTISRDNAKNSLYLQMNSLRTEDTALYYCAKDSHYGSGNFYYYYYGMDVWGQGTTVTVSS
VL: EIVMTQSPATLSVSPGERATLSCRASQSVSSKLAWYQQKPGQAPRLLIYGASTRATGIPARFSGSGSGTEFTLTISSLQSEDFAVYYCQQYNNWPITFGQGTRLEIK
notes: Fully human IgG, constant region not specified; also called 7E1-13N
B5: 2C11-4 (antibody, V domains shown)
VH: EVQLVESGGGLVQPGRSLRLSCAASGFTFRDYAMHWVRQGPGKGLEWVSGISWNTDYIGYADSVKGRFTISRDNAKNSLYLQMNSLRPEDTALYYCAKDARYGRDNYYGMDVWGQGTTVTVSS
VL: EIVLTQSPATLSLSPGERATLSCRASQSVSRYLAWYQQKPGQAPRLLIHDASNRATGIPARFSGSGSGTDFTLTITSLEPEDFVVYYCQQRSDWPITFGQGTRLEIK
notes: Fully human IgG, constant region not specified; also called 2C11-4N
B6: 9H4-12 (antibody, V domains shown)
VH: EVQLVESGGGLVQPGRSLRLSCAASGFTFDDYAMHWVRQVPGKGLEWVSGISWNSGSIGYADSVKGRFTISRDNAKNSLYLQMNSLRAEDTALYYCAKDMGYGNYYHYGMDVWGQGTTVTVSS
VL: B5 VL with E1D, R31S, H49C, N53H, G57R, T76S, V84A, D93N
notes: Fully human IgG, constant region not specified; also called 9H4-12N

molecular target: T1, human CD20; assay: cell-based or functional assay

Binder	% Cytotoxicity (CDC, Daudi), 0 hour	% Cytotoxicity (CDC, Daudi), 1 hour	% Cytotoxicity (CDC, Daudi), 6 hour
B1	97.5%	94%	67.6%

molecular target: T1, human CD20; assay: cell-based or functional assay; remark: another data set of the same source

Binder	% Cytotoxicity (CDC, Daudi), 0 hour	% Cytotoxicity (CDC, Daudi), 1 hour	% Cytotoxicity (CDC, Daudi), 6 hour
B2	98.4%	97.9%	82.2%
B3	98.7%	98.5%	76.9%
B4	98.1%	98.5%	89.3%
B5	29.1%	14%	22.4%
B6	43.2%	17.4%	23.1%

molecular target: T1, human CD20; assay: flow cytometry, hCD20-transfected MG87 cells
Description: Briefly, parental MG87 and human CD20-transfected MG87 cells were incubated for 30 min at 4° C. with each of the 15 human antibodies and the two control antibodies, followed by incubation with PE-conjugated anti-human IgG antibody. Binding was assessed by flow cytometry. Fluorescence intensities were compared with binding to the parental cell line and control isotype-matched sample.

Binder	Total Mean Fluorescent Intensity
B2	2990
B3	2910
B4	3080
B5	2010
B1	3300
B6	2040

molecular target: T2, mutant human CD20 #4 (N166D); assay: FACS, mutant-hCD20 MG87 cells; 100%=best antibody
Description: (§1) Briefly, approximately 1×10⁶ cells from each stably transfected cell line expressing a mutant human CD20 were collected and incubated with each anti-human antibody, at 10 μg/ml, on ice for 1 hr, followed by incubation with APC-conjugated goat anti-human IgG (Jackson Immunolabs), at 10 μg/ml, on ice for 45 min. For each antibody, binding to each mutant human CD20 was assessed by flow cytometry.

Binder	Percent of Binding to Mutant Human CD20
B2	40%
B3	22%
B4	84%
B5	31%
B1	4%
B6	0%

molecular target: T3, mutant human CD20 #5 (P172S); assay: FACS, mutant-hCD20 MG87 cells; 100%=best antibody
Description: as §1

Binder	Percent of Binding to Mutant Human CD20
B2	72%
B3	76%
B4	85%
B5	30%
B1	45%
B6	2%

Molecular target: T4, mutant human CD20 #6 (Y77F, N166D)
Assay: FACS, mutant-hCD20 MG87 cells; 100%=best antibody
Description: as §1

Binder	Percent of Binding to Mutant Human CD20
B2	1%
B3	0%
B4	1%
B5	1%
B1	0%
B6	1%

Molecular target: T5, mutant human CD20 #9 (N163D, N166D)
Assay: FACS, mutant-hCD20 MG87 cells; 100%=best antibody
Description: as §1

Binder	Percent of Binding to Mutant Human CD20
B2	4%
B3	3%
B4	4%
B5	3%
B1	3%
B6	4%
